Laboratory results published in US20250011363A1, “OPTIMIZED SHORTENED PEPTIDE THAT BINDS TO ACETYLCHOLINE RECEPTOR, AND USE THEREOF” (SKINMED CO., LTD., priority 2021, published 2025).

The substances below were run against acetylcholine receptor (Homo sapiens, UniProt P02708) (assay: SPR binding affinity (RU) of optimized 5mer/6mer/7mer peptides, Examples 6-7). Details: 6mer-1 Top sequence; SPR; peptides tested at 10 μM.
Method in brief: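 600 peptides per series (5mer, 6mer-1, 6mer-2), made from high- or low-frequency amino acid combinations, are screened by SPR at 10 μM; binding is recorded in RU.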

Chain of acetylcholine receptor (P02708 21-457): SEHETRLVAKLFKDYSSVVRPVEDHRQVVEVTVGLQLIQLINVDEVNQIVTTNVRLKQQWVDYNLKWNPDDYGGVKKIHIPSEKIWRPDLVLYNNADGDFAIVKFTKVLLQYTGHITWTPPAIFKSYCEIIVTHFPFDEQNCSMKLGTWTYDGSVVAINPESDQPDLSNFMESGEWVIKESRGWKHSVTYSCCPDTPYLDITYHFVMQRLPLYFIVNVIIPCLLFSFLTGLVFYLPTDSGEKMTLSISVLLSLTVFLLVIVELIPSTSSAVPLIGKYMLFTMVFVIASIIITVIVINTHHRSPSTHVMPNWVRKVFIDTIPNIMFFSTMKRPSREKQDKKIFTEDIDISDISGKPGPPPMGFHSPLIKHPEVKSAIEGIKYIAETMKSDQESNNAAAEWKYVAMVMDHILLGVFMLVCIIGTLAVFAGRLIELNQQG

Substance | Binding affinity
6mer-1-203 (RRQITR) | 142 Ru
6mer-1-204 (KKRQRR) | 154 Ru
6mer-1-205 (KRWRLR) | 133 Ru
6mer-1-206 (RRLQTR) | 121 Ru
6mer-1-207 (KKSQQR) | 151 Ru
6mer-1-208 (KRSIQR) | 122 Ru
6mer-1-209 (RKGYTR) | 121 Ru
6mer-1-211 (KKQLLR) | 123 Ru
6mer-1-212 (RRRICR) | 148 Ru
6mer-1-213 (KRRVRK) | 127 Ru
6mer-1-214 (RRSYCK) | 139 Ru
6mer-1-215 (RKRYSR) | 136 Ru
6mer-1-216 (RKSIQR) | 148 Ru
6mer-1-217 (KRVLQR) | 135 Ru
6mer-1-218 (KKQVTR) | 126 Ru
6mer-1-219 (RRLFCR) | 121 Ru
6mer-1-220 (KRQRQK) | 148 Ru
6mer-1-221 (KKWFQR) | 148 Ru
6mer-1-222 (RRRVRR) | 145 Ru
6mer-1-223 (KKRRRK) | 133 Ru
6mer-1-224 (KRGFLR) | 142 Ru
6mer-1-226 (RRWITR) | 128 Ru
6mer-1-227 (KRLVQK) | 139 Ru
6mer-1-228 (KRVIYK) | 139 Ru
6mer-1-229 (RRRLLR) | 153 Ru
6mer-1-230 (RKGYCK) | 128 Ru

Substance | Binding affinity
6mer-1-231 (KRQRTK) | 136 Ru
6mer-1-232 (RRRICK) | 146 Ru
6mer-1-233 (KKWQSR) | 128 Ru
6mer-1-234 (RRGISR) | 142 Ru
6mer-1-235 (KKRYCR) | 148 Ru
6mer-1-236 (RKLISR) | 151 Ru
6mer-1-237 (RKSRYK) | 137 Ru
6mer-1-238 (KKGQQK) | 154 Ru
6mer-1-239 (RKVLCR) | 136 Ru
6mer-1-240 (RRSRRR) | 148 Ru
6mer-1-241 (RRLYYK) | 148 Ru
6mer-1-242 (KRQYLK) | 148 Ru
6mer-1-243 (KKWYLR) | 136 Ru
6mer-1-244 (RRRVQK) | 144 Ru
6mer-1-245 (RRGFRR) | 142 Ru
6mer-1-246 (RRLVSR) | 122 Ru
6mer-1-247 (KKVRQK) | 122 Ru
6mer-1-248 (RRLIYK) | 151 Ru
6mer-1-249 (RKGVSR) | 142 Ru
6mer-1-250 (RRVICR) | 142 Ru
6mer-1-251 (RKVQSK) | 133 Ru
6mer-1-252 (RRWIRR) | 131 Ru
6mer-1-253 (RRVQLK) | 145 Ru
6mer-1-254 (RKSLSK) | 137 Ru
6mer-1-255 (KKGFQK) | 139 Ru

Same assay, conditions: SPR, peptides tested at 10 μM; 6mer-1 Top sequence (top combinations)

Substance | Binding affinity
6mer-1-95 (KKWQTK) | 142 Ru
6mer-1-96 (KRGVRK) | 125 Ru
6mer-1-97 (KKVYLR) | 139 Ru
6mer-1-98 (KRLQCR) | 154 Ru
6mer-1-99 (RKVVYR) | 136 Ru
6mer-1-100 (RKWISK) | 146 Ru
6mer-1-101 (KRWLYR) | 142 Ru
6mer-1-102 (RRRYRR) | 127 Ru
6mer-1-103 (RKRICK) | 122 Ru
6mer-1-104 (KRGFSK) | 121 Ru
6mer-1-105 (KKSISK) | 141 Ru
6mer-1-106 (KRGQLK) | 149 Ru
6mer-1-107 (KKQRSR) | 131 Ru
6mer-1-108 (RRLLLR) | 139 Ru
6mer-1-109 (KKRYLR) | 148 Ru
6mer-1-110 (KRQLLK) | 121 Ru
6mer-1-111 (RKVICR) | 144 Ru
6mer-1-112 (KKWVCR) | 148 Ru
6mer-1-113 (KRGVQK) | 148 Ru
6mer-1-114 (RRQITK) | 153 Ru
6mer-1-115 (RRSLSR) | 133 Ru
6mer-1-116 (RKVRCK) | 139 Ru

Substance | Binding affinity
6mer-1-117 (KRLFTR) | 142 Ru
6mer-1-118 (RKLQLR) | 127 Ru
6mer-1-119 (KRLQTR) | 133 Ru
6mer-1-120 (RRRYSR) | 124 Ru
6mer-1-121 (KRRYTK) | 148 Ru
6mer-1-122 (KKLIRK) | 139 Ru
6mer-1-123 (RRGVQK) | 148 Ru
6mer-1-124 (KRVQQK) | 137 Ru
6mer-1-125 (KRRLCR) | 135 Ru
6mer-1-126 (KKWIQR) | 148 Ru
6mer-1-127 (KRVIYR) | 147 Ru
6mer-1-128 (RKQFYR) | 126 Ru
6mer-1-129 (RRRQSK) | 121 Ru
6mer-1-130 (RKQVLR) | 142 Ru
6mer-1-131 (KRGIQR) | 142 Ru
6mer-1-132 (RRQVYR) | 153 Ru
6mer-1-133 (RKRFLR) | 154 Ru
6mer-1-134 (KKSIYR) | 128 Ru
6mer-1-135 (KRQVSR) | 123 Ru
6mer-1-136 (RRWLYK) | 148 Ru
6mer-1-137 (RRLFRR) | 121 Ru
6mer-1-138 (RKVVTR) | 124 Ru

Substance | Binding affinity
6mer-1-139 (KRRFLR) | 122 Ru
6mer-1-140 (KRQVQR) | 148 Ru
6mer-1-141 (RKLYQK) | 141 Ru
6mer-1-142 (KKVYYK) | 123 Ru
6mer-1-143 (KRGVLR) | 145 Ru
6mer-1-144 (RKRYTR) | 148 Ru
6mer-1-145 (RKVFQR) | 141 Ru
6mer-1-146 (KRGRRR) | 139 Ru
6mer-1-147 (KKQIQR) | 125 Ru
6mer-1-148 (RKLRCR) | 146 Ru
6mer-1-149 (RRWVCK) | 131 Ru
6mer-1-150 (RKRQCR) | 142 Ru
6mer-1-151 (KRGVRR) | 145 Ru
6mer-1-152 (KRVIRR) | 154 Ru
6mer-1-153 (KKWQQR) | 146 Ru
6mer-1-154 (KKLYSR) | 153 Ru
6mer-1-155 (RRVRSR) | 127 Ru
6mer-1-156 (RRSVTK) | 154 Ru
6mer-1-157 (KKSLLR) | 123 Ru
6mer-1-158 (RRLIYR) | 131 Ru
6mer-1-159 (KRLRRK) | 139 Ru
6mer-1-160 (RRVIQR) | 149 Ru

Substance | Binding affinity
6mer-1-161 (KRRYCK) | 139 Ru
6mer-1-162 (KKSLSK) | 142 Ru
6mer-1-163 (KRLQTK) | 147 Ru
6mer-1-164 (KRGQYK) | 145 Ru
6mer-1-165 (KKWFTK) | 148 Ru
6mer-1-166 (RRWYSK) | 148 Ru
6mer-1-167 (RRRYQR) | 122 Ru
6mer-1-168 (KRWFCK) | 131 Ru
6mer-1-169 (RRQQSK) | 153 Ru
6mer-1-170 (RKSFYR) | 148 Ru
6mer-1-171 (RKQFQK) | 123 Ru
6mer-1-172 (RRLIRK) | 153 Ru
6mer-1-173 (RKQYYR) | 123 Ru
6mer-1-174 (KKGVCR) | 154 Ru
6mer-1-175 (RRRIQK) | 137 Ru
6mer-1-176 (KKVYCK) | 121 Ru
6mer-1-177 (KRGYRR) | 121 Ru
6mer-1-178 (RKRYQK) | 139 Ru
6mer-1-179 (KRSQYR) | 148 Ru
6mer-1-180 (RKLVRK) | 146 Ru
6mer-1-181 (KKGVLR) | 148 Ru
6mer-1-182 (KRGICK) | 147 Ru

Substance | Binding affinity
6mer-1-183 (KKGQTR) | 121 Ru
6mer-1-184 (KRQICR) | 139 Ru
6mer-1-185 (KRQLRK) | 153 Ru
6mer-1-186 (RRRVYK) | 147 Ru
6mer-1-187 (RKLFYK) | 139 Ru
6mer-1-188 (RKSLQK) | 122 Ru
6mer-1-189 (KKSYSK) | 137 Ru
6mer-1-190 (RKLYYR) | 153 Ru
6mer-1-191 (KKQILK) | 139 Ru
6mer-1-192 (KRQYQR) | 127 Ru
6mer-1-193 (KRVQLK) | 149 Ru
6mer-1-194 (RKWQRR) | 144 Ru
6mer-1-195 (KRGISR) | 122 Ru
6mer-1-196 (RKWRRK) | 142 Ru
6mer-1-197 (RRSIRR) | 139 Ru
6mer-1-198 (KRLFCR) | 148 Ru
6mer-1-199 (KKQVQK) | 151 Ru
6mer-1-200 (RKLYQR) | 142 Ru
6mer-1-201 (RRRIQR) | 151 Ru
6mer-1-202 (RRQLTK) | 154 Ru
